Non-standard residues stand in square brackets, D forms with d. pY = N[C@@H](Cc1ccc(OP(=O)(O)O)cc1)C(=O)O
Tests used:
[1] = molecular target: recombinant full-length human Grb2 (human, UniProt P62993-1 1-217); test: ITC
[2] = molecular target: recombinant full-length human CrkII (human, UniProt P46108-1 1-304); test: ITC
Chain of recombinant full-length human CrkII (P46108 whole entry): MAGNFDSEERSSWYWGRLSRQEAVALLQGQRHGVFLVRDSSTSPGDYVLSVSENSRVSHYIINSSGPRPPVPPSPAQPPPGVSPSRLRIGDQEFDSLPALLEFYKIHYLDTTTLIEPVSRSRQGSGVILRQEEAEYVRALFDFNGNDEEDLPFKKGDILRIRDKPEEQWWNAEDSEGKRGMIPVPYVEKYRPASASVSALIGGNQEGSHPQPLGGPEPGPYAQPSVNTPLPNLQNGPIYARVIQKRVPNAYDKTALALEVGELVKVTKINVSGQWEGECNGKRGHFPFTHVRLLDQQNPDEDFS

Chain of recombinant full-length human Grb2 (P62993 whole entry): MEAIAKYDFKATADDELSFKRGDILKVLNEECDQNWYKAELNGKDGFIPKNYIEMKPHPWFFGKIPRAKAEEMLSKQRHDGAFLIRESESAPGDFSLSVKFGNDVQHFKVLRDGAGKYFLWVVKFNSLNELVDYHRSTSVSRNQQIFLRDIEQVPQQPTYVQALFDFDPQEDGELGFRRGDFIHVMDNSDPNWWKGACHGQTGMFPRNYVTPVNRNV

Ac-T[pY]SNLGQ-NH2 [PEAK3 phosphorylated peptide Ac-T(pY)SNLGQ-NH2]
stoichiometry N [1]: 1 | Kd [2]: 7.8 µM | stoichiometry N [2]: 1
